This note sets out measurements from article PMC5792450, “PRRT2 Regulates Synaptic Fusion by Directly Modulating SNARE Complex Assembly” (Cell Reports, 2018).

The target of the assay is T1, t-SNARE (syntaxin1a/SNAP25) (UniProt P32851 1-288; P60879 1-206).
T1 construct: syntaxin1a; SNAP25; also called t-SNARE complexes; synaptic t-SNAREs
Kind of assay: MST; t-SNARE or assembled SNARE complex titrated in solution, up to ∼150 μM t-SNARE and ∼60 μM SNARE complex; binding not saturated; soluble conditions; Syt1 tested likewise. The note with it: both partners purified.

T1 sequence (P32851 whole entry, chain 1 of 2): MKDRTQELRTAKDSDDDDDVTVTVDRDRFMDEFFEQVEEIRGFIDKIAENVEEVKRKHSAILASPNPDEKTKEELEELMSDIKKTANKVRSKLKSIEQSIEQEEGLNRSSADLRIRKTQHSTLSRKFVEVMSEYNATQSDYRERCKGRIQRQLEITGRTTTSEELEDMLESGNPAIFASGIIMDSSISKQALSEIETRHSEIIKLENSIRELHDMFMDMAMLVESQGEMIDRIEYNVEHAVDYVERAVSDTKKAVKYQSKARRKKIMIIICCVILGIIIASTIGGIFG
T1 sequence (P60879 whole entry, chain 2 of 2): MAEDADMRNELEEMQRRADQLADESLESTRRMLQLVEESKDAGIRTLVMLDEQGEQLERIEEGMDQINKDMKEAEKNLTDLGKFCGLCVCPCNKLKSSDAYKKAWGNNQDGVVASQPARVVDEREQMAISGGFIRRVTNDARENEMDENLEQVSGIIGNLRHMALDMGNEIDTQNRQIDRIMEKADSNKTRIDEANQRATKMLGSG

B1: proline-rich transmembrane protein 2 (PRRT2), full-length, wild type (natural protein, human, UniProt Q7Z6L0 1-340, looked up)
chain: MAASSSEISEMKGVEESPKVPGEGPGHSEAETGPPQVLAGVPDQPEAPQPGPNTTAAPVDSGPKAGLAPETTETPAGASETAQATDLSLSPGGESKANCSPEDPCQETVSKPEVSKEATADQGSRLESAAPPEPAPEPAPQPDPRPDSQPTPKPALQPELPTQEDPTPEILSESVGEKQENGAVVPLQAGDGEEGPAPEPHSPPSKKSPPANGAPPRVLQQLVEEDRMRRAHSGHPGSPRGSLSRHPSSQLAGPGVEGGEGTQKPRDYIILAILSCFCPMWPVNIVAFAYAVMSRNSLQQGDVDGAQRLGRVAKLLSIVALVGGVLIIIASCVINLGVYK
notes: PRRT2, human, full length, cloned into pGEX6p-1; In the fusion, docking and FRET assays it was reconstituted into liposomes; also called purified PRRT2; recombinant PRRT2; source: E. coli Rosetta2(DE3), purified (glutathione agarose, cleaved off the resin with PreScission Protease)
The Kd is the free concentration of one partner at which half of the binding sites on the other are occupied at equilibrium, for simple one-to-one binding. Read a high Kd as weaker binding. For B1, the Kd was at least 50 µM.
